Legend:
[1] = biological target: T1, TIAR (TIAR-b, short isoform) (UniProt Q01085 1-375); experiment: UV crosslinking
T1 sequence: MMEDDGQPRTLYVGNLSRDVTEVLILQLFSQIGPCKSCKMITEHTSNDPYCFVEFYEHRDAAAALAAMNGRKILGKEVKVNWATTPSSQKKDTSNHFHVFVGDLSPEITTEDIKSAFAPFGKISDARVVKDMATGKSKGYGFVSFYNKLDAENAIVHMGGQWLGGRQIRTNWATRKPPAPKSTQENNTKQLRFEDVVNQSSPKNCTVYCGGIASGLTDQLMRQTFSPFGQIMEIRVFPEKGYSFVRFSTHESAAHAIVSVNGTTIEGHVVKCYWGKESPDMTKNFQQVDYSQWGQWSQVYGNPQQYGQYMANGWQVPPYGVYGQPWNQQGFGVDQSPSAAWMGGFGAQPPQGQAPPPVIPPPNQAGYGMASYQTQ

[2] = biological target: T2, TIA-1 (UniProt P31483 1-386); experiment: UV crosslinking
T2 sequence: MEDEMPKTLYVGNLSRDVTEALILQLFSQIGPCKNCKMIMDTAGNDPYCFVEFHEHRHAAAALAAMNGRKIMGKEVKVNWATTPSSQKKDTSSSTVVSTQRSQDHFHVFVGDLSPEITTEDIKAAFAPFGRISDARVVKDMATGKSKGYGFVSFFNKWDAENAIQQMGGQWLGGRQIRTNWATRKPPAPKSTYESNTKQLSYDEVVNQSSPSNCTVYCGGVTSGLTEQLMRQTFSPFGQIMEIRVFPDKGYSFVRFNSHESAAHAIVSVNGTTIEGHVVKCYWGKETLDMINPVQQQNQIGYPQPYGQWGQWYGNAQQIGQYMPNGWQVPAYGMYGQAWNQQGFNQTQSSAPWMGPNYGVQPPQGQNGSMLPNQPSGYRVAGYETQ

[3] = biological target: T3, TIAR RRM2,3 (UniProt Q01085 94-375); experiment: UV crosslinking titration
T3 sequence: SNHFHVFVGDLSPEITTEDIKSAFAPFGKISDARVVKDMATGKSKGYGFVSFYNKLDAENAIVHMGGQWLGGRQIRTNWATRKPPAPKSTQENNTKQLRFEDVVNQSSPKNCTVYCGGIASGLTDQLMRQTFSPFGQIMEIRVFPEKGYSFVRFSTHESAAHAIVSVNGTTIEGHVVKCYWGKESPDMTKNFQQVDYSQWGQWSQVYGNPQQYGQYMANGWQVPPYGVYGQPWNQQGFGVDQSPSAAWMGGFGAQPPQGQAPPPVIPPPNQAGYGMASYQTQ

[4] = biological target: HuR (UniProt Q15717 1-326); experiment: UV crosslinking
[5] = biological target: T1, TIAR (TIAR-b, short isoform); experiment: UV crosslinking + immunoprecipitation
[6] = biological target: T4, TIAR RRM1 (UniProt Q01085 2-93); experiment: UV crosslinking titration
T4 sequence: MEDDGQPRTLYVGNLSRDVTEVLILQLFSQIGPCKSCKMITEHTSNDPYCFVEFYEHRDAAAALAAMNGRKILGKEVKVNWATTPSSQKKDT

[7] = biological target: T1, TIAR (TIAR-b, short isoform); experiment: EMSA
[8] = biological target: T1, TIAR (TIAR-b, short isoform); experiment: UV crosslinking; remark: listed apart in the source
[9] = biological target: T1, TIAR (TIAR-b, short isoform); experiment: UV crosslinking; remark: listed apart in the source
[10] = biological target: T1, TIAR (TIAR-b, short isoform); experiment: competition

Sequence of HuR (Q15717 whole entry, canonical isoform): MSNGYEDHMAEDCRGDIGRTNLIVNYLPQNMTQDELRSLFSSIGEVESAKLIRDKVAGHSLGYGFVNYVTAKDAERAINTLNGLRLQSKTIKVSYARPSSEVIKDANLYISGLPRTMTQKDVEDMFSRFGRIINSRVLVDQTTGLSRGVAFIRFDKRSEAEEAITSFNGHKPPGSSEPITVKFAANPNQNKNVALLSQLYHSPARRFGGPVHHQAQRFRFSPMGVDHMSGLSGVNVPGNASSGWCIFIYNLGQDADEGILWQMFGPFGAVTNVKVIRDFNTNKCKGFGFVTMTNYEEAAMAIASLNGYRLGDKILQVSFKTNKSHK

TTAATATCTAAAATAAAATAAATT (ssDNA) [IL8-AS1]: no binding [1].

AGAATTAAATTCTTTAATACAAAATGCTTTTTTTTTTTTA (ssDNA) [VEGF-AS1] was tested, and the binding result [2] was “binds”, the Kd [3] was 3 nM and the binding result [4] was “no binding”.

TTTTTTTTTTTTTTT (ssDNA) [oligo(dT)15]: binds [1].

TAAAAATAAATATGTACTACGGAATATCTCGAAAAAC (ssDNA) [VEGF-AS4]: no binding [1].

B1: T7tiar/T7 partial duplex template (mixed)
DNA 1: AAGATGAGAATAGTATTTTTTTTTTTTCGTATTGGAACAATATAAACAATACTATCCCTATAGTGAGTCGTATTA
DNA 2: TAATACGACTCACTATAGGG
B1: binds [5].

AAAAUGCUUUUUUUUUUUUA (ssRNA) [rVEGF-AS1]: no binding [6]; binds [2].

AATAAATAAATGATAACAAATATTAAAATTAAAAAAG (ssDNA) [VEGF-AS2]: no binding [6]; no binding [2]; no binding [4]. AATAAATAAATGATAACAAATATTAAAATTAAAAAAG (ssDNA) [VEGF-AS2]: no binding [7].

B2: VEGF-S2/VEGF-AS2 duplex (dsDNA)
DNA 1: CTTTTTTAATTTTAATATTTGTTATCATTTATTTATT
DNA 2: AATAAATAAATGATAACAAATATTAAAATTAAAAAAG
B2: no binding [8].

B3: T7tiar full-length transcript (ssRNA)
RNA: GGGAUAGUAUUGUUUAUAUUGUUCCAAUACGAAAAAAAAAAAAUACUAUUCUCAUCUU
B3: binds [9].

AAAATGCTTTTTTT (ssDNA) [VEGF-AS1b.2]: no binding [10].

CTTTTTTAATTTTAATATTTGTTATCATTTATTTATT (ssDNA) [VEGF-S2]: binds [9].

AAAATGCTTTTTTTTTTTTA (ssDNA) [VEGF-AS1b]: binds [1].

— PMC1184220
